From US7439329B2, “GEF-H1b: biomarkers, complexes assays and therapeutic uses thereof” (Sugen, Inc., priority 2002, dated 2008)
Where a chain is given by its changes, count along the chain named. Numbers in names are those of the source.

Tests used:
GEF-H1S [1] = molecular target: T1, GEF-H1S (Homo sapiens, UniProt Q92974, INS962GETLAETWTR); assay: Pull-down of GEF-H1 with PAK4 domains and biotinylated PAK4 peptides; type: binding; conditions: PAK4 domain expressed in 293T lysate; GST-GEF-H1S (aa763-921) on glutathione beads
T1 sequence (Q92974 with tags, fused parts or gaps): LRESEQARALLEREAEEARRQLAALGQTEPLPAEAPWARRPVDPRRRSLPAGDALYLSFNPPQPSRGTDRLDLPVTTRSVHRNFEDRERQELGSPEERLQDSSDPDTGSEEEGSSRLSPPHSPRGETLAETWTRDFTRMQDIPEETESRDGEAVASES
Protocol: (§1) FIG. 1: (SEQ ID NOs 32-34 respectively in order of appearance) Direct binding of GEF-H1 to PAK4. Lysates were prepared from 293T cells over expressing (a) myc tagged PAK4 alleles or subdomains and incubated with GST, GST-GEF-H1 (787-921) and GST-Maguin-like bound to Glutathione beads (1,2,3,4 bead designation) or (b) GFP-GEF-H1 and incubated with PAK4 biotinylated peptides (291-355) and (276-324) linked to streptavidin beads. An equivalent amount of beads and excess lysates (500 ug) were used. Eluates of beads and total lysates were analysed by SDS-PAGE and immunoblotted with myc or GEF-H1 antiserum; (c) represents a PAK4 gene schematic outlining the regions of PAK4 used to identify the GEF-H1 interaction domain (GID). d, alignment of the GID defined by the minimal binding region of PAK4 with PAK5 and PAK6.
(§2) To confirm the in vitro interaction of GEF-H1S with PAK4, bacterially expressed GST-fusion proteins were generated with the identical sequences isolated by phage display, encoding either amino acids 763-921 of GEF-H1S or amino acids 385-555 from the Maguin-2-like protein. These fusion proteins were bound to glutathione beads and utilized in binding assays with 293T lysates expressing exogenous PAK4.
(§3) Biotinylated peptides derived from the N-terminal region of PAK4 sequence were used to further map the GEF-H1 binding site. […]

GEF-H1S [2] = molecular target: T2, GEF-H1S (Homo sapiens, UniProt Q92974, INS962GETLAETWTR); assay: as above; type: binding; conditions: biotinylated PAK4 peptides linked to streptavidin beads
T2 sequence (Q92974 with tags, fused parts or gaps): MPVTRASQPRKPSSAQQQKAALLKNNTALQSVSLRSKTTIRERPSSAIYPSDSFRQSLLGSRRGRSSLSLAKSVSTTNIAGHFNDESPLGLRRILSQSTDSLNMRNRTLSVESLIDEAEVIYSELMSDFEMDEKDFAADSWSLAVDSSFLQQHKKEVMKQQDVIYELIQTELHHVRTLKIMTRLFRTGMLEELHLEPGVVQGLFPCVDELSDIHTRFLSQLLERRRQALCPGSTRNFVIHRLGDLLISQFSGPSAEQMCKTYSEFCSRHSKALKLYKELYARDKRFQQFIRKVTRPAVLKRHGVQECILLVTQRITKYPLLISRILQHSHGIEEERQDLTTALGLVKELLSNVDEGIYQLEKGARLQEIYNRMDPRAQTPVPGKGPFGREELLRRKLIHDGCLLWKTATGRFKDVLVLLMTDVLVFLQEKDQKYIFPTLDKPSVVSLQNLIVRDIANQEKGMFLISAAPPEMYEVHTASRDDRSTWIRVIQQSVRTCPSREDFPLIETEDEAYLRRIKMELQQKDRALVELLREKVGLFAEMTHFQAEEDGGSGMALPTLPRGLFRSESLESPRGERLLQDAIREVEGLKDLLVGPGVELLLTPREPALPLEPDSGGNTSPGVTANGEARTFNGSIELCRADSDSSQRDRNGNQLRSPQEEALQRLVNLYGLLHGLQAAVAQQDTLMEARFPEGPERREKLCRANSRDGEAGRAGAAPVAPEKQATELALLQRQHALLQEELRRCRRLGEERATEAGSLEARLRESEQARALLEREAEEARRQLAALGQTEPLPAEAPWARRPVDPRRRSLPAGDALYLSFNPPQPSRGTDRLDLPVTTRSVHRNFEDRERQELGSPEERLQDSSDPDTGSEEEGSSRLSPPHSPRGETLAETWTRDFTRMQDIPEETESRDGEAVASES
Protocol: as §1, §2, §3

GEF-H1S [3] = assay: Co-transfection of GEF-H1S and PAK4 alleles, Western blot with phospho-specific GEF-H1 antibodies; type: cell-based, human
Protocol: To confirm that GEF-H1S phosphorylation by PAK4 occurs at these sites in vivo, co-transfection assays were performed and analyzed phosphorylation of GEF-H1 by use of a phospho-specific antibody directed against phospho-serine 810. This antibody is specific for GEF-H1 that is phosphorylated on Ser 810. […] Expression of the kinase-dead PAK4 is also able to inhibit endogenous PAK4 basal phosphorylation of GEF-H1S on Ser 810.
In this experiment GEF-H1S expression vector was pRSV/Rc and the PAK4 expression vector was pcDNA. Lysates were prepared from the transfected 293T cells and analyzed by Western Blot using the anti-1009 reagent. […] These phosphospecific antibodies can be used to detect PAK4 activity in tumors by virtue of its specific phosphorylation of GEF-H1.

[4] = co-expression with GEF-H1S in mammalian (293T) cells, anti-1009 Western blot, relative to basal phosphorylation

B1: amino acids 1-309: amino-terminal regulatory domain of PAK4 alone (protein, UniProt O96013 1-309, looked up, fragment)
chain: MFGKRKKRVEISAPSNFEHRVHTGFDQHEQKFTGLPRQWQSLIEESARRPKPLVDPACITSIQPGAPKTIVRGSKGAKDGALTLLLDEFENMSVTRSNSLRRDSPPPPARARQENGMPEEPATTARGGPGKAGSRGRFAGHSEAGGGSGDRRRAGPEKRPKSSREGSGGPQESSRDKRPLSGPDVGTPQPAGLASGAKLAAGRPFNTYPRADTDHPSRGAQGEPHDVAPNGPSAGGLAIPQSSSSSSRPPTRARGAPSPGVLGPHASEPQLAPPACTPAAPAVPGPPGPRSPQREPQRVSHEQFRAALQ
interaction with GEF-H1S (GEF-H1S [1]): did not stably interact

B2: amino acids 291-355: biotinylated PAK4 peptide covering a more C-terminal region (peptide, UniProt O96013 291-355, looked up, fragment)
chain: SPQREPQRVSHEQFRAALQLVVDPGDPRSYLDNFIKIGEGSTGIVCIATVRSSGKLVAVKKMDLR
modifications: biotin
notes: biotinylated PAK4 peptide covering a more C-terminal region
interaction with GEF-H1S (GEF-H1S [2]): did not

B3: S474E: activated PAK4 mutant (protein)
chain: MFGKRKKRVEISAPSNFEHRVHTGFDQHEQKFTGLPRQWQSLIEESARRPKPLVDPACITSIQPGAPKTIVRGSKGAKDGALTLLLDEFENMSVTRSNSLRRDSPPPPARARQENGMPEEPATTARGGPGKAGSRGRFAGHSEAGGGSGDRRRAGPEKRPKSSREGSGGPQESSRDKRPLSGPDVGTPQPAGLASGAKLAAGRPFNTYPRADTDHPSRGAQGEPHDVAPNGPSAGGLAIPQSSSSSSRPPTRARGAPSPGVLGPHASEPQLAPPACTPAAPAVPGPPGPRSPQREPQRVSHEQFRAALQLVVDPGDPRSYLDNFIKIGEGSTGIVCIATVRSSGKLVAVKKMDLRKQQRRELLFNEVVIMRDYQHENVVEMYNSYLVGDELWVVMEFLEGGALTDIVTHTRMNEEQIAAVCLAVLQALSVLHAQGVIHRDIKSDSILLTHDGRVKLSDFGFCAQVSKEVPRRKELVGTPYWMAPELISRLPYGPEVDIWSLGIMVIEMVDGEPPYFNEPPLKAMKMIRDNLPPRLKNLHKVSPSLKGFLDRLLVRDPAQRATAAELLKHPFLAKAGPPASIVPLMRQNRTR
phosphorylation of GEF-H1S on Ser 810 (GEF-H1S [3]; [4]): marked increase
phosphorylation of GEF-H1S on Ser 810 (GEF-H1S [3]; co-expression with GEF-H1S in mammalian (293T) cells, anti-1009 Western blot, relative to basal phosphorylation, listed as activated PAK4): enhanced
phosphorylation of GEF-H1S on Ser 67 (GEF-H1S [3]; co-transfection with GEF-H1S, phospho-specific antibodies against Ser 67): stimulated phosphorylation

B4: wild type PAK4 (1-591): wild type p-21-activated kinase 4 expressed from pcDNA (protein)
chain: B3 chain with E474S
phosphorylation of GEF-H1S on Ser 810 (GEF-H1S [3]; co-expressed with Cdc42): enhanced
phosphorylation of GEF-H1S on Ser 810 (GEF-H1S [3]; [4]): marked increase

B5: PAK4 kinase dead K350,351A: kinase inactive PAK4 mutant (protein, UniProt O96013 1-591, looked up, variant K350A K351A)
Serine/threonine-protein …: B3 chain with K350A, K351A, E474S
phosphorylation of GEF-H1S on Ser 810 (GEF-H1S [3]; [4]): marked decrease
phosphorylation of GEF-H1S on Ser 810 (GEF-H1S [3]; co-expression with GEF-H1S in mammalian (293T) cells, anti-1009 Western blot, relative to basal phosphorylation, listed as kinase-dead PAK4): inhibit
